{"source": "paper PMC9482650", "about": "“Quantitative fragmentomics allow affinity mapping of interactomes” (Nature Communications, 2022)", "assay_in_all_cases": "holdup assay", "set-up_in_all_cases": "key: below the threshold = too weak to quantify, mostly under pKd 3.1 to 4", "settings_in_all_cases": "plain residues with an end cap or a label only (N-terminal biotin on a linker: ttds)", "key": {"ARHGAP21, Q5T5U3": {"biological_target": "T1, ARHGAP21, Q5T5U3", "T1 sequence (Q5T5U3 45-169, limits assumed, looked up)": "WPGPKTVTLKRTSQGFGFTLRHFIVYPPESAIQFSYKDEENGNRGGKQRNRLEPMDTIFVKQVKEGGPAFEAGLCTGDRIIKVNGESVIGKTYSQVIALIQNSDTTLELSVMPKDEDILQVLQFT"}, "ARHGEF11, O15085": {"biological_target": "T2, ARHGEF11, O15085", "T2 sequence (O15085 42-136, limits assumed, looked up)": "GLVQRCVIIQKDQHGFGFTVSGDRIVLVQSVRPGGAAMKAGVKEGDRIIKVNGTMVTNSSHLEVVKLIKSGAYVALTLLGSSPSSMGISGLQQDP"}, "ARHGEF12, Q9NZN5-2": {"biological_target": "ARHGEF12, Q9NZN5-2", "sequence (Q9NZN5 other isoform, or with tags, fused parts or gaps)": "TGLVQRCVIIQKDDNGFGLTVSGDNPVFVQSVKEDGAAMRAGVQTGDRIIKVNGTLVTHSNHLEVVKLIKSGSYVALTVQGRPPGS"}, "CARD11, Q9BXL7": {"biological_target": "T3, CARD11, Q9BXL7", "T3 sequence (Q9BXL7 662-765, limits assumed, looked up)": "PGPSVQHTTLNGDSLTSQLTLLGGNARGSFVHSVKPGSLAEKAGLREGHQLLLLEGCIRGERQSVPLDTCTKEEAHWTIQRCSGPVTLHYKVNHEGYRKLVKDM"}, "DVL3, Q92997": {"biological_target": "T4, DVL3, Q92997", "T4 sequence (Q92997 244-331, limits assumed, looked up)": "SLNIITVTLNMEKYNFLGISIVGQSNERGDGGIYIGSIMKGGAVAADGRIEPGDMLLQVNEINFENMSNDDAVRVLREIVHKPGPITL"}, "GIPC2, Q8TF65": {"biological_target": "GIPC2, Q8TF65", "sequence (Q8TF65 112-203)": "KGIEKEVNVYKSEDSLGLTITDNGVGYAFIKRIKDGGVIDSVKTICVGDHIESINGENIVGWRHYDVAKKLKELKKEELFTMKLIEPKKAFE"}, "GRIP2_5, Q9C0E4": {"biological_target": "GRIP2_5, Q9C0E4", "sequence (Q9C0E4 544-642)": "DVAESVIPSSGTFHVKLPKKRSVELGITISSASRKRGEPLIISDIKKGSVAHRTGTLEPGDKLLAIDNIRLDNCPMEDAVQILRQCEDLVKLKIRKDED"}, "HTRA2, O43464": {"biological_target": "HTRA2, O43464", "sequence (O43464 355-458)": "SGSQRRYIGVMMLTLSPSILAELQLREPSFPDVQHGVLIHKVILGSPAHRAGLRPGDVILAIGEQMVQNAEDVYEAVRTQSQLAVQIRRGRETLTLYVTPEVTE"}, "IL16_4, Q14005": {"biological_target": "IL16_4, Q14005", "sequence (Q14005 1229-1329)": "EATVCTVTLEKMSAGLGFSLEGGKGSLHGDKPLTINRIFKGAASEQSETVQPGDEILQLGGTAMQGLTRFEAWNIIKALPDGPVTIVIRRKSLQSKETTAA"}, "Inadl_2, Q8NI35": {"biological_target": "Inadl_2, Q8NI35", "sequence (Q8NI35 238-335)": "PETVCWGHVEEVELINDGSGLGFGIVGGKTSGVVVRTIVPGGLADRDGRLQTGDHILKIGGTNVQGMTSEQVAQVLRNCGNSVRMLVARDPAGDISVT"}, "Inadl_3, Q8NI35": {"biological_target": "Inadl_3, Q8NI35", "sequence (Q8NI35 359-469)": "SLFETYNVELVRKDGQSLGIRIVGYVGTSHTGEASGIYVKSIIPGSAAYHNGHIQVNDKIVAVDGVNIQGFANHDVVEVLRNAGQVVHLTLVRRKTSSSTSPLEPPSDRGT"}, "Inadl_6, Q8NI35": {"biological_target": "Inadl_6, Q8NI35", "sequence (Q8NI35 1058-1167)": "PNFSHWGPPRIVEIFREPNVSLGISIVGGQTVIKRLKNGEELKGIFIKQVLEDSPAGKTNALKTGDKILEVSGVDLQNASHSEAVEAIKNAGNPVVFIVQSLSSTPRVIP"}, "LIN7C, Q9NUP9": {"biological_target": "T5, LIN7C, Q9NUP9", "T5 sequence (Q9NUP9 88-185, limits assumed, looked up)": "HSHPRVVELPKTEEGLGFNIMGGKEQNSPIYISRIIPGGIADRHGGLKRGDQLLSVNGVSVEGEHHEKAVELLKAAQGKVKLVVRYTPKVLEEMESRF"}, "MAGI1_2, Q96QZ7": {"biological_target": "MAGI1_2, Q96QZ7", "sequence (Q96QZ7 456-580)": "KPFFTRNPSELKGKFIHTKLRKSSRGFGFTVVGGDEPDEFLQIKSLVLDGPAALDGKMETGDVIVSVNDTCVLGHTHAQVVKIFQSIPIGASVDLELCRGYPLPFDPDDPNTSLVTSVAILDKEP"}, "MPDZ_10, O75970": {"biological_target": "T6, MPDZ_10, O75970", "T6 sequence (O75970 1624-1722, limits assumed, looked up)": "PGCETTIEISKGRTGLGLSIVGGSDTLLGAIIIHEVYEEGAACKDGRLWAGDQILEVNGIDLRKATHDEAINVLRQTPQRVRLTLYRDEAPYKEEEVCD"}, "MPDZ_5, O75970": {"biological_target": "T7, MPDZ_5, O75970", "T7 sequence (O75970 695-796, limits assumed, looked up)": "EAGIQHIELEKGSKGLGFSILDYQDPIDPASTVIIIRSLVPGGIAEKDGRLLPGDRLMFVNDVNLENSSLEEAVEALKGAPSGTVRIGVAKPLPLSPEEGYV"}, "MPP6, Q9NZW5": {"biological_target": "T8, MPP6, Q9NZW5", "T8 sequence (Q9NZW5 125-219, limits assumed, looked up)": "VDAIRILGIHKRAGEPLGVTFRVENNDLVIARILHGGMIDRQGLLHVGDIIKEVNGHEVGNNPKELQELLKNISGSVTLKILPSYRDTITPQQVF"}, "NHERF4_4, Q86UT5": {"biological_target": "NHERF4_4, Q86UT5", "sequence (Q86UT5 464-550)": "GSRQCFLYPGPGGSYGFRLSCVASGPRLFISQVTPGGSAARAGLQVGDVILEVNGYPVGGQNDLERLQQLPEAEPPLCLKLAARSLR"}, "PDLIM1, O00151": {"biological_target": "PDLIM1, O00151", "sequence (O00151 1-87)": "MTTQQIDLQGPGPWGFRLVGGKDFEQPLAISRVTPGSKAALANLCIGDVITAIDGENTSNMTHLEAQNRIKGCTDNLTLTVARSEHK"}, "PTPN13_1, Q12923": {"biological_target": "T9, PTPN13_1, Q12923", "T9 sequence (Q12923 1088-1188, limits assumed, looked up)": "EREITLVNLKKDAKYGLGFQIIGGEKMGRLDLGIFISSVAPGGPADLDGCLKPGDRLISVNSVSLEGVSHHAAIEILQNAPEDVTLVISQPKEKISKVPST"}, "PTPN3, P26045": {"biological_target": "PTPN3, P26045", "sequence (P26045 505-587)": "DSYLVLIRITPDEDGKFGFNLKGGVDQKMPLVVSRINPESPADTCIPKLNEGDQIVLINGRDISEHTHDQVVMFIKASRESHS"}, "RADIL, Q96JH8": {"biological_target": "T10, RADIL, Q96JH8", "T10 sequence (Q96JH8 971-1071, limits assumed, looked up)": "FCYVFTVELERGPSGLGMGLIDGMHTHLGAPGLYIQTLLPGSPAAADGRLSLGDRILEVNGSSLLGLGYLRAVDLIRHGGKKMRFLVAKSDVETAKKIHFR"}, "RAPGEF6, Q8TEU7": {"biological_target": "T11, RAPGEF6, Q8TEU7", "T11 sequence (Q8TEU7 525-625, limits assumed, looked up)": "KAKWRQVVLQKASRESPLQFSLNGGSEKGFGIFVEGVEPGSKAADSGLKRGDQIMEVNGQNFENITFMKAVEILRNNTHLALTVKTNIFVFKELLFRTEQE"}, "SIPA1L2, Q9P2F8": {"biological_target": "T12, SIPA1L2, Q9P2F8", "T12 sequence (Q9P2F8 945-1036, limits assumed, looked up)": "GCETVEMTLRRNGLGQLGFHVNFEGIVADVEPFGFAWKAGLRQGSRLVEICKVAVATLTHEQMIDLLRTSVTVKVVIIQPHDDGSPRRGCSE"}, "TJP1_3, Q07157": {"biological_target": "TJP1_3, Q07157", "sequence (Q07157 416-512)": "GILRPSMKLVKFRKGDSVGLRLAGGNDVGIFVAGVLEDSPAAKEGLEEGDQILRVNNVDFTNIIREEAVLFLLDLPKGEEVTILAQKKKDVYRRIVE"}}}
{"binder": "KKYVDAETSL", "note": "[SLC4A7, Q9Y6M7]", "values": [{"measurement": "pKd", "setting": "ARHGAP21, Q5T5U3", "result": "below the threshold"}, {"measurement": "pKd", "setting": "ARHGEF11, O15085", "result": 3.97}, {"measurement": "pKd", "setting": "ARHGEF12, Q9NZN5-2", "result": 4.29}, {"measurement": "pKd", "setting": "CARD11, Q9BXL7", "result": "below the threshold"}, {"measurement": "pKd", "setting": "DVL3, Q92997", "result": "below the threshold"}, {"measurement": "pKd", "setting": "GIPC2, Q8TF65", "result": 3.68}, {"measurement": "pKd", "setting": "GRIP2_5, Q9C0E4", "result": "below the threshold"}, {"measurement": "pKd", "setting": "HTRA2, O43464", "result": "below the threshold"}, {"measurement": "pKd", "setting": "IL16_4, Q14005", "result": 3.53}, {"measurement": "pKd", "setting": "Inadl_2, Q8NI35", "result": "below the threshold"}, {"measurement": "pKd", "setting": "Inadl_3, Q8NI35", "result": "below the threshold"}, {"measurement": "pKd", "setting": "Inadl_6, Q8NI35", "result": 3.71}, {"measurement": "pKd", "setting": "LIN7C, Q9NUP9", "result": 3.81}, {"measurement": "pKd", "setting": "MAGI1_2, Q96QZ7", "result": 3.69}, {"measurement": "pKd", "setting": "MPDZ_10, O75970", "result": "below the threshold"}, {"measurement": "pKd", "setting": "MPDZ_5, O75970", "result": "below the threshold"}, {"measurement": "pKd", "setting": "MPP6, Q9NZW5", "result": "below the threshold"}, {"measurement": "pKd", "setting": "NHERF4_4, Q86UT5", "result": "below the threshold"}, {"measurement": "pKd", "setting": "PDLIM1, O00151", "result": "below the threshold"}, {"measurement": "pKd", "setting": "PTPN13_1, Q12923", "result": "below the threshold"}, {"measurement": "pKd", "setting": "PTPN3, P26045", "result": 5.04}, {"measurement": "pKd", "setting": "RADIL, Q96JH8", "result": "below the threshold"}, {"measurement": "pKd", "setting": "RAPGEF6, Q8TEU7", "result": "below the threshold"}, {"measurement": "pKd", "setting": "SIPA1L2, Q9P2F8", "result": "below the threshold"}, {"measurement": "pKd", "setting": "TJP1_3, Q07157", "result": "below the threshold"}]}
{"binder": "RLQRRRETQV", "note": "[HPV18-E6, P06463]", "values": [{"measurement": "pKd", "setting": "ARHGAP21, Q5T5U3", "result": "below the threshold"}, {"measurement": "pKd", "setting": "ARHGEF11, O15085", "result": 3.66}, {"measurement": "pKd", "setting": "ARHGEF12, Q9NZN5-2", "result": 3.91}, {"measurement": "pKd", "setting": "CARD11, Q9BXL7", "result": "below the threshold"}, {"measurement": "pKd", "setting": "DVL3, Q92997", "result": "below the threshold"}, {"measurement": "pKd", "setting": "GIPC2, Q8TF65", "result": "below the threshold"}, {"measurement": "pKd", "setting": "GRIP2_5, Q9C0E4", "result": "below the threshold"}, {"measurement": "pKd", "setting": "HTRA2, O43464", "result": "below the threshold"}, {"measurement": "pKd", "setting": "IL16_4, Q14005", "result": "below the threshold"}, {"measurement": "pKd", "setting": "Inadl_2, Q8NI35", "result": "below the threshold"}, {"measurement": "pKd", "setting": "Inadl_3, Q8NI35", "result": "below the threshold"}, {"measurement": "pKd", "setting": "Inadl_6, Q8NI35", "result": "below the threshold"}, {"measurement": "pKd", "setting": "LIN7C, Q9NUP9", "result": 4.17}, {"measurement": "pKd", "setting": "MAGI1_2, Q96QZ7", "result": 5.97}, {"measurement": "pKd", "setting": "MPDZ_10, O75970", "result": 3.56}, {"measurement": "pKd", "setting": "MPDZ_5, O75970", "result": "below the threshold"}, {"measurement": "pKd", "setting": "MPP6, Q9NZW5", "result": "below the threshold"}, {"measurement": "pKd", "setting": "NHERF4_4, Q86UT5", "result": "below the threshold"}, {"measurement": "pKd", "setting": "PDLIM1, O00151", "result": "below the threshold"}, {"measurement": "pKd", "setting": "PTPN13_1, Q12923", "result": "below the threshold"}, {"measurement": "pKd", "setting": "PTPN3, P26045", "result": 4.49}, {"measurement": "pKd", "setting": "RADIL, Q96JH8", "result": 3.28}, {"measurement": "pKd", "setting": "RAPGEF6, Q8TEU7", "result": "below the threshold"}, {"measurement": "pKd", "setting": "SIPA1L2, Q9P2F8", "result": "below the threshold"}, {"measurement": "pKd", "setting": "TJP1_3, Q07157", "result": "below the threshold"}]}
{"binder": "SSLQSLETSV", "note": "[ATP2B4, P23634]", "values": [{"measurement": "pKd", "setting": "ARHGAP21, Q5T5U3", "result": "below the threshold"}, {"measurement": "pKd", "setting": "ARHGEF11, O15085", "result": 4.43}, {"measurement": "pKd", "setting": "ARHGEF12, Q9NZN5-2", "result": 4.4}, {"measurement": "pKd", "setting": "CARD11, Q9BXL7", "result": "below the threshold"}, {"measurement": "pKd", "setting": "DVL3, Q92997", "result": 3.6}, {"measurement": "pKd", "setting": "GIPC2, Q8TF65", "result": 4.16}, {"measurement": "pKd", "setting": "GRIP2_5, Q9C0E4", "result": "below the threshold"}, {"measurement": "pKd", "setting": "HTRA2, O43464", "result": "below the threshold"}, {"measurement": "pKd", "setting": "IL16_4, Q14005", "result": "below the threshold"}, {"measurement": "pKd", "setting": "Inadl_2, Q8NI35", "result": "below the threshold"}, {"measurement": "pKd", "setting": "Inadl_3, Q8NI35", "result": 3.56}, {"measurement": "pKd", "setting": "Inadl_6, Q8NI35", "result": "below the threshold"}, {"measurement": "pKd", "setting": "LIN7C, Q9NUP9", "result": 4.8}, {"measurement": "pKd", "setting": "MAGI1_2, Q96QZ7", "result": 3.68}, {"measurement": "pKd", "setting": "MPDZ_10, O75970", "result": "below the threshold"}, {"measurement": "pKd", "setting": "MPDZ_5, O75970", "result": 3.58}, {"measurement": "pKd", "setting": "MPP6, Q9NZW5", "result": 3.56}, {"measurement": "pKd", "setting": "NHERF4_4, Q86UT5", "result": "below the threshold"}, {"measurement": "pKd", "setting": "PDLIM1, O00151", "result": 3.66}, {"measurement": "pKd", "setting": "PTPN13_1, Q12923", "result": 3.5}, {"measurement": "pKd", "setting": "PTPN3, P26045", "result": 5.12}, {"measurement": "pKd", "setting": "RADIL, Q96JH8", "result": 3.69}, {"measurement": "pKd", "setting": "RAPGEF6, Q8TEU7", "result": 3.72}, {"measurement": "pKd", "setting": "SIPA1L2, Q9P2F8", "result": "below the threshold"}, {"measurement": "pKd", "setting": "TJP1_3, Q07157", "result": "below the threshold"}]}
